Experimental data from the PETadex activity labels (doi:10.1038/s41467-025-61599-z).

Key:
[1] = Proxy for plastic degradation [UPLC/UHPLC]; details: pH 9
pNPB = test: Proxy for plastic degradation [Absorbance @ 430nm] (min⁻¹); details: pH 8; part of the chain shown
PET [2] = test: Proxy for plastic degradation [Released monomer concentration (HPLC/LC-MS) (MHET+TPA)]; details: pH 9, part of the chain shown
PET [3] = test: Proxy for plastic degradation [Released monomer concentration (HPLC/LC-MS) (TPA+MHET)]
PET [4] = test: Proxy for plastic degradation [kcat/Km (catalytic efficiency)] (mM⁻¹s⁻¹); details: pH 8
[5] = Proxy for plastic degradation [Released monomer concentration (HPLC/LC-MS) (TPA+MHET)]

B1: unnamed (protein)
chain: MSHRFRLAAAVCVAAAILVPATPAAAADPWDAPGPYATAVQIGAVNTLYYPRDIASSPRRHPVIVWGNGTGAAPLVYRDLLLYWASHGFIVSAANTPASNLGISMRLGIDALAAADADPGSIFRGKVDLAHIGASGHSQGGAAAIVVGADPRIDAILPIQPGPLADIDDVHVPALLLAGQHDSIVFPFLVKAFYNDATHIPAIYAEVRGADHFTVVGDPGPFAAPTTAWFRFQLMGDTAARAEFYGPSCGICTDTRTWSDVRRNALVP
[1]; 30 °C
  Proxy for plastic degradation: 13 µM
[1]; 40 °C
  Proxy for plastic degradation: 13.4 µM
[1]; 50 °C
  Proxy for plastic degradation: 14.2 µM
[1]; 55 °C
  Proxy for plastic degradation: 13.4 µM
[1]; 60 °C
  Proxy for plastic degradation: 14.1 µM

B2: unnamed (protein)
chain: APPDYGLPGSYPVAYSDVTAVAGGRSVPARVHYPATTSGTNQPVATGRFPVIA
pNPB
  Proxy for plastic degradation: 13000
PET [2]; 30 °C
  Proxy for plastic degradation: 13 µM
PET [2]; 40 °C
  Proxy for plastic degradation: 18 µM
PET [2]; 50 °C
  Proxy for plastic degradation: 16.6 µM
PET [2]; 55 °C
  Proxy for plastic degradation: 16.2 µM
PET [2]; 60 °C
  Proxy for plastic degradation: 16.5 µM

B3: unnamed (protein)
chain: MGGGGEDNVFAEPGDFDVVTEPGGRDCTIFRPEQLGDDHAVVIWGNGTGASPNTYAGLLRHYASHGFVVVAANTSNAGTGEDMLNCLDFLEGSQLASSVDFSKVGATGHSQGGGGAIMAGVDPRIATTAPIEGFTLGLGHDRDSHDQQNGPMLILSGSADRLVNPRTNHAPLFDATNVPAFWAIAQGAGHFEPVGDGGDFRGISTAWFLFQLEDDPEATTHFVGDDCFVCEDPGFDVEGVKEID
[1]; 30 °C
  Proxy for plastic degradation: 14 µM
[1]; 40 °C
  Proxy for plastic degradation: 13.8 µM
[1]; 50 °C
  Proxy for plastic degradation: 15.8 µM
[1]; 55 °C
  Proxy for plastic degradation: 14.4 µM
[1]; 60 °C
  Proxy for plastic degradation: 14.9 µM

B4: unnamed (protein)
chain: MAVMTPRRERSSLLSRALQVTAAAATALVTAVSLAAPAHAANPYERGPNPTDALLEASSGPFSVSEENVSRLSASGFGGGTIYYPRENNTYGAVAISPGYTGTEASIAWLGERIASHGFVVITIDTITTLDQPDSRAEQLNAALNHMINRASSTVRSRIDSSRLAVMGHSMGGGGTLRLASQRPDLKAAIPLTPWHLNKNWSSVTVPTLIIGADLDTIAPVATHAKPFYNSLPSSISKAYLELDGATHFAPNIPNKIIGKYSVAWLKRFVDNDTRYTQFLCPGPRDGLFGEVEEYRSTCPF
PET [3]; 30 °C
  Proxy for plastic degradation: 7.78 µM
PET [3]; 40 °C
  Proxy for plastic degradation: 26.7 µM
PET [3]; 50 °C
  Proxy for plastic degradation: 124 µM
PET [3]; 55 °C
  Proxy for plastic degradation: 850 µM
PET [3]; 60 °C
  Proxy for plastic degradation: 140 µM

B5: unnamed (protein)
chain: MAVITPRRERSSLLSRALRFTAAAATALVTAVSLAAPAHAANPYERGPNPTDALLEARSGPFSVSEERASRFGADGFGGGTIYYPRENNTYGAVAISPGYTGTQASVAWLGKRIASHGFVVITIDTNTTLDQPDSRARQLNAALDYMINDASSAVRSRIDSSRLAVMGHSMGGGGSLRLASQRPDLKAAIPLTPWHLNKNWSSVRVPTLIIGADLDTIAPVLTHARPFYNSLPTSISKAYLELDGATHFAPNIPNKIIGKYSVAWLKRFVDNDTRYTQFLCPGPRDGLFGEVEEYRSTCPF
PET [3]; 30 °C
  Proxy for plastic degradation: 2.77 µM
PET [3]; 40 °C
  Proxy for plastic degradation: 2.15 µM
PET [3]; 50 °C
  Proxy for plastic degradation: 2.1 µM
PET [3]; 55 °C
  Proxy for plastic degradation: 2.23 µM
PET [3]; 60 °C
  Proxy for plastic degradation: 0 µM

B6: unnamed (protein)
chain: MNFPRASRLMQAAVLGGLMAVSAAATAQTNPYARGPNPTAASLEASAGPFTVRSFTVSRPSGYGAGTVYYPTNAGGTVGAIAIVPGYTARQSSIKWWGPRLASHGFVVITIDTNSTLDQPSSRSSQQMAALRQVASLNGTSSSPIYGKVDTARMGVMGWSMGGGGSLISAANNPSLKAAAPQAPWDSSTNFSSVTVPTLIFACENDSIAPVNSSALPIYDSMSRNAKQFLEINGGSHSCANSGNSNQALIGKKGVAWMKRFMDNDTRYSTFACENPNSTRVSDFRTANCS
[1]; 30 °C, part of the chain shown
  Proxy for plastic degradation: 37.5 µM
[1]; 40 °C, part of the chain shown
  Proxy for plastic degradation: 31.2 µM
[1]; 50 °C, part of the chain shown
  Proxy for plastic degradation: 18 µM
[1]; 55 °C, part of the chain shown
  Proxy for plastic degradation: 15.4 µM
[1]; 60 °C, part of the chain shown
  Proxy for plastic degradation: 15.6 µM
pNPB
  Proxy for plastic degradation: 18300
PET [3]; 30 °C, part of the chain shown
  Proxy for plastic degradation: 37.5 µM
PET [3]; 40 °C, part of the chain shown
  Proxy for plastic degradation: 31.2 µM
PET [3]; 50 °C, part of the chain shown
  Proxy for plastic degradation: 18 µM
PET [3]; 55 °C, part of the chain shown
  Proxy for plastic degradation: 15.6 µM
PET [3]; 60 °C, part of the chain shown
  Proxy for plastic degradation: 0 µM
PET [3]; pH 9, 30 °C, 24 h, part of the chain shown
  Proxy for plastic degradation: 70.2 µM
PET [3]; pH 9, 30 °C, 48 h, part of the chain shown
  Proxy for plastic degradation: 69.5 µM
PET [3]; pH 9, 30 °C, 72 h, part of the chain shown
  Proxy for plastic degradation: 15.4 µM
PET [2]; 30 °C
  Proxy for plastic degradation: 37.5 µM
PET [2]; 40 °C
  Proxy for plastic degradation: 31.2 µM
PET [2]; 50 °C
  Proxy for plastic degradation: 18 µM
PET [2]; 55 °C
  Proxy for plastic degradation: 15.4 µM
PET [2]; 60 °C
  Proxy for plastic degradation: 15.6 µM

B7: unnamed (protein)
chain: MNFPRASRLMQAAVLGGLMAVSAAATAQTNPYARGPNPTAASLEASAGPFTVRSFTVSRPSGYGAGTVYYPTNAGGTVGAIAIVPGYTARQSSIKWWGPRLASHGFVVITIDTNSTLDQPESRSSQQMAALRQVASLNGTSSSPIYGKVDTARMGVMGWSMGGGGSLISAANNPSLKAAAPQAPWHSSTNFSSVTVPTLIFACENDSIAPVNSSALPIYDSMSQNAKQFLEIKGGSHSCANSGNSNQALIGKKGVAWMKRFMDNDTRYSTFACENPNSTAVSDFRTANCS
PET [4]
  Proxy for plastic degradation: 0.141
[5]; 30 °C
  Proxy for plastic degradation: 213 µM
[5]; 40 °C
  Proxy for plastic degradation: 272 µM
[5]; 50 °C
  Proxy for plastic degradation: 2110 µM
[5]; 60 °C
  Proxy for plastic degradation: 58 µM
